Results on five substances are retold here after PMC3412936.

What all share (test): ITC
A general note: Isothermal titration calorimetry measures the heat released or taken up as one component is titrated into another.

The target of assay [1] is WW1 domain (residues 16-50) of human WWOX (human) (UniProt Q9NZC7).
Assay [2] addresses engineered WW1-WW2rw tandem domains of WWOX (human) (UniProt Q9NZC7).
The target in assay [3] is WW2_Y85W mutant of the WW2 domain of WWOX (human) (UniProt Q9NZC7).
WW2_Y85W mutant of the WW2 domain of WWOX (human), sequence (Q9NZC7 57-91 Y85W): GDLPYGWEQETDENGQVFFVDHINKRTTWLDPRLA
In assay [4] the target is WW2 domain (residues 57-91) of human WWOX (human) (UniProt Q9NZC7).
WW2 domain (residues 57-91) of human WWOX (human), sequence (Q9NZC7 57-91): as the sequence (Q9NZC7 57-91 Y85W) above, with W29Y counted along it
Assay [5] deals with WW1_R25E mutant of the WW1 domain of WWOX (human) (UniProt Q9NZC7).
WW1_R25E mutant of the WW1 domain of WWOX (human), sequence (Q9NZC7 16-50 R25E): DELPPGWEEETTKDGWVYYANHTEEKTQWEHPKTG
In assay [6] the target is WW1_W44Y mutant of the WW1 domain of WWOX (human) (UniProt Q9NZC7).
WW1_W44Y mutant of the WW1 domain of WWOX (human), sequence (Q9NZC7 16-50 W44Y): as the sequence (Q9NZC7 16-50 R25E) above, with E10R, W29Y counted along it
For assay [7], the target named is engineered WW2_RW domain of WWOX (E66R/Y85W double-mutant of WW2 domain) (human) (UniProt Q9NZC7).
engineered WW2_RW domain of WWOX (E66R/Y85W double-mutant of WW2 domain) (human), sequence (Q9NZC7 57-91 E66R/Y85W): as the sequence (Q9NZC7 57-91 Y85W) above, with E10R counted along it
Assay [8] has as its target WW1-WW2 tandem domains (residues 16-91) of human WWOX (human) (UniProt Q9NZC7).
Assay [9] concerns the target WW1_R25A mutant of the WW1 domain of WWOX (human) (UniProt Q9NZC7).
For assay [10], the target named is WW2_E66R mutant of the WW2 domain of WWOX (human) (UniProt Q9NZC7).
WW2_E66R mutant of the WW2 domain of WWOX (human), sequence (Q9NZC7 57-91 E66R): as the sequence (Q9NZC7 57-91 Y85W) above, with E10R, W29Y counted along it

One may read the Kd as a measure of binding affinity in units of concentration. A higher Kd goes with lower affinity. One may read the stoichiometry N as the number of molecules, sites or subunits per partner or assembly.

WW1 domain (residues 16-50) of human WWOX (human), sequence (Q9NZC7 16-50): as the sequence (Q9NZC7 16-50 R25E) above, with E10R counted along it
WW1-WW2 tandem domains (residues 16-91) of human WWOX (human), sequence (Q9NZC7 16-91): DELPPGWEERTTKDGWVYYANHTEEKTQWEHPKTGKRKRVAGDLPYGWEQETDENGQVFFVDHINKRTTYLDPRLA
engineered WW1-WW2rw tandem domains of WWOX (human), sequence (Q9NZC7 16-91 E66R/Y85W): as the sequence (Q9NZC7 16-91) above, with E51R, Y70W counted along it
WW1_R25A mutant of the WW1 domain of WWOX (human), sequence (Q9NZC7 16-50 R25A): as the sequence (Q9NZC7 16-50 R25E) above, with E10A counted along it

In assay [1], “PY3_P-2A alanine mutant of the WBP2_PY3 peptide” came in with a Kd of 250 µM and a dH of -75.3 kJ/mol.

As for “PY3_Q-3A alanine mutant of the WBP2_PY3 peptide”, in assay [1], the Kd stood at 149 µM and the dH was -52 kJ/mol.

In the case of “PY3_Y+3A alanine mutant of the WBP2_PY3 peptide”, in assay [1], the Kd came to 554 µM and the dH was -20.7 kJ/mol.

“PY3_Y+4A alanine mutant of the WBP2_PY3 peptide”: in [1], the Kd was found to be 229 µM and the dH was -34.9 kJ/mol.

Take “WBP2_PY3 peptide (12-mer spanning the PY3 PPXY motif of human WBP2)”: the Kd in assay [2] was 59 µM; in assay [3] it was over 1000 µM; in assay [4], over 1000 µM; in [5] it was over 1000 µM; in assay [6], over 1000 µM; in assay [7], 91 µM. For the same substance, the Kd is 49 µM in assay [8], over 1000 µM in assay [9], over 1000 µM in assay [10] and 122 µM in assay [1]. For the same substance, the dH in [2] is -33.6 kJ/mol; in assay [7] it was -21.8 kJ/mol; in assay [8], -35.4 kJ/mol; in assay [1], -52.8 kJ/mol. The substance further yielded a stoichiometry N in [8] of 1.05.
